Data on 40 sequences can be found in the nanobody polyreactivity screen of Harvey et al. (2022).

A short description of the data set: yeast display, Sf9 membrane polyspecificity reagent, FACS + sequencing; frameworks hold sequencing errors. The method, boiled down:
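A synthetic nanobody library was expressed on Saccharomyces cerevisiae BJ5465 by galactose induction for 36–48 hours. The library was stained for 1 hour at 4 °C with 10% biotinylated, detergent-solubilized Sf9 membrane reagent and enriched with streptavidin microbeads before FACS. Low and high (top ~1%) gates were set on anti-HA fluorescence for expression and streptavidin fluorescence for reagent binding, and each polyreactivity label reflects the gate of origin.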
As to “QVQLVESGGCLVQAGGSLRLSCAASGFTFGRYAMGWYRQAPGKEREFVAAISYTGTSTYYADSVKGRFTISRDNAKNTVYLQMNSLKPEDTAVYYCNAVHPGTVAYDSWGQGTQVTVSS”, the “polyreactivity (PSR sort gate)” value is reported as “high polyreactivity”. The result for “QVQLVESGGCLVQAGGSLRLSCAASGFTFGRYVMGWYRQAPGKERELVAGINQSGGRTNYADSVKGRFTISRDNAKNTVYLQMNSLKPEDTAVYYCAALRSWRKTGGAQRYWYDYWGQGTQVTVSS” reads “high polyreactivity”.

For the sequence “QVQLVESGGCLVQAGGSLRLSCAASGGIFYPNAMGWYRQAPGKEREFVASITRSGGSTYYADSVKGRFTISRDNAKNTVYLQLNSLTPEDTAVYDCAAAYKSLYTYTRFYYWGQGTQVTVSS”, the “polyreactivity (PSR sort gate)” value is given as “high polyreactivity”. For the sequence “QVQLVESGGCLVQAGGSLRLSCAASGLIFYENAMGWYRQAPGKERELVAAINYDGDSTYYADSVKGRFTISRDNAKITVYLQMNSLKPEDTAVYYCAADGGWVLFWMDYWGQGTQVTVSS”, the “polyreactivity (PSR sort gate)” value is reported as “low polyreactivity”.

Consider “QVQLVESGGCLVQAGGSLRLSCAASGLTFRYYAMGWYRQAPGKERELVAAITASVGSTYYADSVKGRFTISRDNAKNTVYLQMNSLKPEDTAVYYCAADSEQDNLRYYRWVWYDYWGQGTQVTVSS”, for which the “polyreactivity (PSR sort gate)” value is on record as “low polyreactivity”. In the case of “QVQLVESGGCLVQAGGSLRLSCAASGNTFTSYAMGWYRQAPGKERELVAAISASGSSTYYADSVKGRFTISRDNAKNTVYLQMNSLKPEDTAVYYCNAVKYRVESSYDYWGQGTQVTVSS”, the “polyreactivity (PSR sort gate)” value is “low polyreactivity”.

For the sequence “QVQLVESGGCLVQAGGSLRLSCAASGNTIIRYAMGWYRQAPGKERELVAAISYSGGRTYYADSVKGRFTISRDNAKNTVYLQMNSLKPVDNAVYYCNAASRYGGDYWGQGTQVTVSS”, the “polyreactivity (PSR sort gate)” value was “high polyreactivity”. With “QVQLVESGGCLVQAGGSLRLSCAASGRIFGSYTKGWYRQAPGKERELVAAISDSGDSTYADSVKGRFTISRDNAKNTVYLQMNSLKPEDTAVYYCNAKSGSLAGNEYDYWGQGTQVTVSS”, the “polyreactivity (PSR sort gate)” value is reported as “low polyreactivity”. On to “QVQLVESGGCLVQAGGSLRLSCAASGRIFRYNTMGWYRQAPGKEREFVASISNGGSTNYADSVKGRFTISRDNAKNTVYLQMNSLKPEDTAVYYCNADVPSDGYPGYPGGFESWGQGTQVTVSS”, for which the “polyreactivity (PSR sort gate)” value was “low polyreactivity”. As to “QVQLVESGGCLVQAGGSLRLSCAASGRIFYSYAMGWYRQAPGKERELVATISSGGSTNYADSVKGRFTISRDHAKNTVYLQMNSLKPEDTAVYFCAAADRLYWRGVIYRQYDYWGLGTQVTVSS”, the “polyreactivity (PSR sort gate)” value was “high polyreactivity”. Regarding “QVQLVESGGCLVQAGGSLRLSCAASGRIIYSNGMGWYRQAPGKERELVAAISSGGSTYYADSVKGRFTISRDNAKNTVYLQMNSLKPEDTAVYYCNKDYLLRHYYIYVIEGDYWGQGTQVTVSS”, the “polyreactivity (PSR sort gate)” value was “low polyreactivity”. “QVQLVESGGCLVQAGGSLRLSCAASGRRVQTYAMGWYRQAPRKERELVAAISIRGGSTYYADSVKGRFTISRDNAKNTVYLQKNSLTPEDTAVYYCNALYGRQIVDYEYWGQGTQVTVSS”: the “polyreactivity (PSR sort gate)” value is listed as “low polyreactivity”. As for “QVQLVESGGCLVQAGGSLRLSCAASGRTFGFYAMGWYRQAPGKERELVAGITQSGGSTYYADSVKGRFTISRDNAKNTVYLQMNSLKTEDTAVYYCATDYQQLDDYWGQGTQVTVSS”, the “polyreactivity (PSR sort gate)” value was “low polyreactivity”. For the sequence “QVQLVESGGCLVQAGGSLRLSCAASGRTFSYYAMGWYRQAPGKERELVAAIDWSGSRTYYADSVKGRFTISRDNAKNTVYLQMNSLKPEDTAVYYCIADRTRGYQRYDYWGQGTQVTVSS”, the “polyreactivity (PSR sort gate)” value was “high polyreactivity”. For the sequence “QVQLVESGGCLVQAGGSLRLSCAASGRTFYLYAMGWNRQAPGKEREFVARITFSGVSTYYADSVKGSFTISRDNAKNTVSLQMYRLKPEDTAVYYCNRVGHYGYSEGYYYWGQGTQVTVSS”, the “polyreactivity (PSR sort gate)” value was “high polyreactivity”. As for “QVQLVESGGCLVQAGGSLRLSCAASGRTSDGYAMGWYRQAPGKERELVAGITEGGGDTYYADSVKGRFTISRDNAKITDYLQMNSLKPEDTAVYYCNAGEGSRLPYDYWGQGTQVTVSS”, the entry is “low polyreactivity”; as for “QVQLVESGGCLVQAGGSLRLSCAASGSIFDAYDKGWYRQAPGKERELVAAISRSGASTYYADSVKGRFTISRDNAKNTVYLQMNSLKPEDTAVYSCAARDRQRVSYGYWGQGTQVTVTS”, “high polyreactivity”. The result for “QVQLVESGGCLVQAGGSLRLSCAASGSIFDSNAMGWYRQAPGKERELVAAITWSGGRTYYADSVKGRFTISLDNAKNTVYLQMNSLKPEDTAVYYCAARKYTLFWPYDYWGQGTQVTVSS” reads “high polyreactivity”; that for “QVQLVESGGCLVQAGGSLRLSCAASGSIFLFYAMGWYRHPPGKERELVAVIDTRASTTYYADSVKGRFTISRDNAKNTVYLQMNSLKPEDTAVYYCAAELQFTLYYSRPLLYQYYYWGQGTQVTVSS”, “high polyreactivity”; that for “QVQLVESGGCLVQAGGSLRLSCAASGSIFRYYAKGWYRQAPGKERELVAAIRVSTGSTSYADSVKGRFTISRDTAKNTVYLQMNSLKPEDTAFYYCNARSRQVIAYRQHNYWGQGTQVTVSS”, “high polyreactivity”. The result for “QVQLVESGGCLVQAGGSLRLSCAASGSIFSRYDMGWYRQAPGKEREFVPRITQRGGSTYYADSVKGRFTISRDNAKNTVYLQMNTVKPEDTAVYYCYADHYRRQLAEDYWGQGTQVTVSS” reads “low polyreactivity”.

Consider “QVQLVESGGCLVQAGGSLRLSCAASGSIFVYYAMGWYRQSPGKERELVAAISWSGGSTRYADSVKGRFTISRDNAKNTVYLQMNSLKPEDTAVYYCAAKRLGGGYWGQGTQVTVSS”, for which the “polyreactivity (PSR sort gate)” value is “high polyreactivity”. As for “QVQLVESGGCLVQAGGSLRLSCAASGSIFYKYAMGWYRQAPGKERELVAAITSGGRTTYADSVKGRFTISRDNAKNTVYLQMNSLKPEDTAVYYCAAVVFSRRYWVKFYYWGQGTQVNVSS”, the entry is “high polyreactivity”.

With “QVQLVESGGCLVQAGGSLRLSCAASGSIITWNAMVWYRQAPGKERELVAAIDWDGGSTYYADSVKGRFTISRDNAKNTVYLQMHILKPEDTAVYYCAATYGWYTVRYPSGHYYYWGQGTQVTVSS”, the “polyreactivity (PSR sort gate)” value is given as “low polyreactivity”. As for “QVQLVESGGCLVQAGGSLRLSCAASGSTFKRYAMGWYRQAPGKVGELVAAISKSGGSTYYADSVKGRFTISRDNAKNTDYLQMNCLNAEDTAVYYCAAGRSIGALYYGMDYWGEGTQVTVSS”, the entry is “high polyreactivity”; as for “QVQLVESGGCLVQAGGSLRLSCAASGSTFNFYAMGWYRQAPGKEREFVAAITSSGDSTYYADSVKGRFTISRDNAKNTVYLQMNSLKPEDTAVYYCAALTPRNRYRKFDYWGQGTQVTVSS”, “high polyreactivity”. For the sequence “QVQLVESGGCLVQAGGSLRLSCAASGSTFTINVMGWYRQAPGKERELVAAINGGGRTNYADSVKGRFTISRDNAKNTVYLQMNSLKPEDTAVYYCAADGLSNVRQMDYWGQGTQVTVSS”, the “polyreactivity (PSR sort gate)” value is given as “low polyreactivity”. Regarding “QVQLVESGGCLVQAGGSLRLSCAASGSTFTTNAMGWYIQAPGKERELVAAISWSGTTTYYADSVKGRFTISRDNAKNTGYLQMNSLKPEDTAVYYCAAQVVSGTVAYLDFGYWGQGTQVTVSS”, the “polyreactivity (PSR sort gate)” value is given as “low polyreactivity”. The result for “QVQLVESGGCLVQAGGSLRLSCAASGSTFWPYAMGWYRQAPGKERELVAAITSSGGSTYYADSVKGRFTISRDNAKNTVYLQMNSLKPEDTEVYYCAADWSNLGAYDYWGQGTQVTVSS” reads “low polyreactivity”; that for “QVQLVESGGCLVQAGGSLRLSCAASGSTLGYYAMGWYRQAPGKERELVASIRWDTASTYYADSVKGRFTISRDNAKNTVYLQMNSLKPEDTAVYYCNAGRPRFYRSRWYYYGYGYWGQGTQVTVSS”, “high polyreactivity”; that for “QVQLVESGGCLVQAGGSLRLSCAASGSTLSYYAMGWYRQAPGKERELVAAINKSVTRTYYADSVKGRFTISRDNAKNTVYLQMNSLKPEDTAVYYCAASVPYYNGYYYNAYEYWGQGTQVTVSS”, “high polyreactivity”.

For “QVQLVESGGCLVQAGGSLRLSCASSGSTFSPNDMGWYRQAPGKESELVADISNYADSVKGRFTISRDNAKNTVYLQMNSLKPEDTAVYYCAAEWRGDRYRLYVVSWWYDYWGQGTQVTVSS”, the “polyreactivity (PSR sort gate)” value was “low polyreactivity”. With “QVQLVESGGCLVQAGGSLRLSCSASGSTITYYAMGWYRQAPGKERELVAAISGRGGRTDYADSVKGRFTISRDNAKNTVYLQMNSLKPEATAVYYCARAGRVQPGSEDDYWGQGTQVTVSS”, the “polyreactivity (PSR sort gate)” value is listed as “high polyreactivity”. As for “QVQLVESGGCLVQAGGSLRLSCSSSGSTFEYNAIGWYRQAPGKERELVAAIRSSSSTHYADSVKGRFTISRDNAKNTVYLQMNSLKPEDTAVYYFNTDAHYYDHWGQGTQVTVSS”, the entry is “low polyreactivity”; as for “QVQLVESGGCLVQAGGSLRLSCSTSGSTFAVYVMGWSRQAPGKERELVAAISTSGARTYYADSVKGRFTISRDNAKNTDYLQMNSLKPEDTAVYYCAARGIYKSKYDYWGQGTQVSVSS”, “high polyreactivity”.

Consider “QVQLVESGGCLVQAGGSLRLSSPASGITFPDYDMGWYRQAPGKERELVAAITYRSGSTYYADSVKGRFTISRDNAKNTVYFQMNSLKPEDTAVYYCAAKRFLLRYYTKQYNYWGQGTQVTVSS”, for which the “polyreactivity (PSR sort gate)” value is listed as “high polyreactivity”. For the sequence “QVQLVESGGCLVQAGGSLRLTCAASGFIFPYYAMGWYRQAPGKERELVAGITGADSTYYADSVKGRFTISRDNAKNTVYLQMNSLKPEDTAVYYCARKRYSLSRTYNYGYWGQGTQVTVSS”, the “polyreactivity (PSR sort gate)” value is “high polyreactivity”. As to “QVQLVESGGCLVQAGGSLRLTCAASGRTFYRYAMGWSRQAPRKERELVAAITTSGGSTYYADSVKGRFTISRDNAMTTVFLQKNSLNPDDTEVYYCAATYYGYHIRDDYWGQGTQVTVSS”, the “polyreactivity (PSR sort gate)” value is recorded as “low polyreactivity”. On to “QVQLVESGGCLVQAGGSLSLSCAASGFTFSWNAMGWYRQAPGKERELVATITRSGSTYYADSVKGRFTISRDNAKNTVYLLMNSLKPEDTAVYYCAVVSWYRYSRYENDYWGQGTQVTVSS”, for which the “polyreactivity (PSR sort gate)” value is recorded as “high polyreactivity”. The result for “QVQLVESGGCLVQAGRSLRLSCAASGSTFYYNAMAWYRQAPGKERELVAAITFTGGSTYADSVKGRFTISRDNAKNTVYFQMNSQKPEDTAVYYCAATIQGHDYLGTGYDYWGQGTQVTVSS” reads “low polyreactivity”.
